The target of data set [1] is T1, STF-1 + Pbx1 heterodimer (UniProt P52947;P40424 P52947:1-283,P40424:1-430). Briefly: EMSA; minimal effect on cooperativity. The note with it: tags: STF-1 recombinant from E. coli; Pbx1 in vitro translated in reticulocyte lysate; label: 32P. An excerpt:
Gel mobility shift assay using TSE II oligonucleotide plus STF-1 and/or Pbx as indicated over each lane. TNT, control lysate. […] Off-rate analysis of STF-1 and STF-1 Pbx complexes using somatostatin TSE II oligonucleotide as probe. Time (in minutes) after addition of excess unlabeled TSE II oligo as indicated. Complexes C1 and C2, corresponding to STF-1 monomer and STF-1/PBX heterodimer, respectively, as indicated. […] TSEII, wild-type TSE II oligonucleotide. P and FLAT, insulin I promoter elements which recognize STF-1 with high affinity. TSEI, somatostatin promoter element which binds STF-1. PBX, in vitro translated PBX protein added to binding reactions; STF, full length recombinant STF-1 protein. […] Brackets indicate consensus TAAT motifs which were targeted for mutagenesis. […] Transient transfection assay of GC cells using STF-1 and E2A-Pbx effector plasmids as indicated below each bar. […] Activities were normalized to co-transfected RSV-CAT control plasmid.
Gel mobility shift assays were performed exactly as described previously (20) using 0.1 ng of end-labeled double stranded oligonucleotide whose sequences are presented in FIG. 2C. For off-rate analysis, the TSEII probe was first incubated with the proteins at room temperature for 30 minutes, then a 1000-fold excess of unlabeled TSEII oligonucleotide was added and aliquots were loaded at various time points on a running gel. […]

Data set [2] has as its target T1, STF-1 + Pbx1 heterodimer. Kind of data set: EMSA; no heteromeric complex. The note with it: tags: STF-1 recombinant from E. coli; Pbx1 in vitro translated in reticulocyte lysate; label: 32P. The procedure:
(§1) Gel mobility shift assays were performed exactly as described previously (20) using 0.1 ng of end-labeled double stranded oligonucleotide whose sequences are presented in FIG. 2C. For off-rate analysis, the TSEII probe was first incubated with the proteins at room temperature for 30 minutes, then a 1000-fold excess of unlabeled TSEII oligonucleotide was added and aliquots were loaded at various time points on a running gel. In supershift assays, TU6 nuclear cell extract was preincubated with 1 µl of Pbx (11) or STF-antiserum (20) for 15 minutes at room temperature before adding the TSEII probe.
(§2) To determine whether Pbx and STF-1 can bind cooperatively to other STF-1 target sites besides TSEII, gel shift assays were performed with the recombinant STF-1 and Pbx proteins on the somatostatin TSEI or insulin P and Flat elements, sites which bind STF-1 and which are required for islet cell restricted expression of the rat somatostatin and insulin I genes, respectively, in pancreatic cells (FIG. 2D and FIG. 2E). In contrast to the TSEII element (FIG. 2D, lanes 1–4), no heteromeric STF-1-Pbx complex was observed on the TSEI, P or FLAT elements. Indeed, heteromeric STF-1 complexes are also undetectable when the TSEI, P, or FLAT elements are used in gel shift assays of crude pancreatic cell extracts (data not shown) (20).

For data set [3], the target named is T2, STF-1 (IPF1/IDX-1/PDX1) (UniProt P52947 P52947:1-283). Kind of data set: EMSA. The note with it: tags: GST fusion (pGEX3X, E. coli), GST removable by factor Xa; label: 32P. How it is done:
as §1, §2

Data set [4] has as its target T2, STF-1 (IPF1/IDX-1/PDX1). Kind of data set: EMSA; high affinity site. The note with it: tags: GST fusion (pGEX3X, E. coli), GST removable by factor Xa; label: 32P.
In data set [5] the target is STF-1 FPWMK to AAGGQ mutant (UniProt P52947 P52947:1-283, FPWMK to AAGGQ). Briefly: EMSA; wild-type binding activity. The note with it: label: 32P. For orientation: Mobility shift assays separate free from complexed probe on a gel.
STF-1 FPWMK to AAGGQ mutant, sequence (P52947 other isoform, or with tags, fused parts or gaps FPWMK to AAGGQ | mutant): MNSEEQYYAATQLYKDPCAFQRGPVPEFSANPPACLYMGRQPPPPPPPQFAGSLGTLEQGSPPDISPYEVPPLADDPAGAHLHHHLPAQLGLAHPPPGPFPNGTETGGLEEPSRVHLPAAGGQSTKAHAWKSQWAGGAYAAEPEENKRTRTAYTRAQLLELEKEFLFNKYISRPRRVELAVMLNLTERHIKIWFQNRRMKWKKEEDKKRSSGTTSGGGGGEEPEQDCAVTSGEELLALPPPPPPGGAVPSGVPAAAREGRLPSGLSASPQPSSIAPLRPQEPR
Data set [6] deals with T1, STF-1 + Pbx1 heterodimer. Briefly: EMSA; no heteromeric complex; no synergy in reporter assay. The note with it: tags: STF-1 recombinant from E. coli; Pbx1 in vitro translated in reticulocyte lysate; label: 32P. How it is done:
as §1
as §2, with “(20). […]” for “(20).”

The values below come from patent US5849493, “Screening assay for compounds stimulating somatostatin transcription factor -1 binding to an STF-1 binding site” (Research Development Foundation).

T1 sequence (P52947 whole entry, chain 1 of 2): as the sequence (P52947 other isoform, or with tags, fused parts or gaps FPWMK to AAGGQ | mutant) above, with A119F, A120P, G121W, G122M, Q123K counted along it
T1 sequence (P40424 whole entry, chain 2 of 2): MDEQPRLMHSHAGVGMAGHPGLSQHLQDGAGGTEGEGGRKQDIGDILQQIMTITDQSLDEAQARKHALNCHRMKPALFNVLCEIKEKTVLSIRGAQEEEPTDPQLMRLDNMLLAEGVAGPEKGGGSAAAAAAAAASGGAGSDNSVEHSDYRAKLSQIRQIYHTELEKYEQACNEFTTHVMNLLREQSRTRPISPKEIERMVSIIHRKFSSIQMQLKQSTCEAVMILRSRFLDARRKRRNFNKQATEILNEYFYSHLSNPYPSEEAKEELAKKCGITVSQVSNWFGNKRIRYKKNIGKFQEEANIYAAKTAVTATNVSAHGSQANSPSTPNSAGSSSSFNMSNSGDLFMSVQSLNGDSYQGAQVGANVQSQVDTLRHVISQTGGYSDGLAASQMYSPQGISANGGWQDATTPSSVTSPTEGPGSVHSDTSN
T2 sequence (P52947 whole entry, the tested form may be a part, one chain of several): as the sequence (P52947 other isoform, or with tags, fused parts or gaps FPWMK to AAGGQ | mutant) above, with A119F, A120P, G121W, G122M, Q123K counted along it

B1: TSEII M3 (dsDNA)
DNA 1: GATCTCAGTAATTATACATGCA
DNA 2: GTACTGCATGTATAATTACTGA
As for B1, the binding result in the data set with STF-1 + Pbx1 heterodimer [1] is “binds”.

B2: somatostatin TSEI (dsDNA)
DNA 1: GATCTTGCGAGGCTAATGGTGCG
DNA 2: GTACCGCACCATTAGCCTCGCAA
Turning to B2, the binding result is “no binding” in the data set with STF-1 + Pbx1 heterodimer [2] and “binds” with STF-1 (IPF1/IDX-1/PDX1) [3].

B3: insulin I P element (dsDNA)
DNA 1: GATCTAGAGCCCTTAATGGGCCAAA
DNA 2: GATCTTTGGCCCATTAAGGGCTCTA
Take B3: the results for the binding result (with STF-1 (IPF1/IDX-1/PDX1) [4]; in data set [5]; in the data set with STF-1 + Pbx1 heterodimer [6]) were “binds”, “binds” and “no binding”, respectively.
